In IntAct's records for PubMed 35512704:

B1: Speckle-type POZ protein (Homo sapiens), O43791 (parent)
chain: MSRVPSPPPPAEMSSGPVAESWCYTQIKVVKFSYMWTINNFSFCREEMGEVIKSSTFSSGANDKLKWCLRVNPKGLDEESKDYLSLYLLLVSCPKSEVRAKFKFSILNAKGEETKAMESQRAYRFVQGKDWGFKKFIRRDFLLDEANGLLPDDKLTLFCEVSVVQDSVNISGQNTMNMVKVPECRLADELGGLWENSRFTDCCLCVAGQEFQAHKAILAARSPVFSAMFEHEMEESKKNRVEINDVEPEVFKEMMCFIYTGKAPNLDKMADDLLAAADKYALERLKVMCEDALCSNLSVENAAEILILADLHSADQLKTQAVDFINYHASDVLETSGWKSMVVSHPHLVAEAYRSLASAQCPFLGPPRKRLKQS
partner: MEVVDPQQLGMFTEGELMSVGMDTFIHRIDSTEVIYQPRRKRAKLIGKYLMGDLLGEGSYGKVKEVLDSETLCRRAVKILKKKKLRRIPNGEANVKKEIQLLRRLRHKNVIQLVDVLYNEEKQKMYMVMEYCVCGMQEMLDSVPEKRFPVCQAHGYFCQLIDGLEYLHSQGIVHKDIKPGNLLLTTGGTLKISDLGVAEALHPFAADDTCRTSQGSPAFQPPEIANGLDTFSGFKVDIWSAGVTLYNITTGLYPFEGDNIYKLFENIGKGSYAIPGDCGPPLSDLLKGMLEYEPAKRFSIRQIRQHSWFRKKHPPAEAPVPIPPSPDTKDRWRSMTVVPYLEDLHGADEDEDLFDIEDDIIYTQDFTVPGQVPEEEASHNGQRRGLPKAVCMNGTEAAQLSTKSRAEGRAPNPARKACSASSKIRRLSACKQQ
B2: Speckle-type POZ protein (Homo sapiens), O43791 (parent)
chain: B1 chain
partner: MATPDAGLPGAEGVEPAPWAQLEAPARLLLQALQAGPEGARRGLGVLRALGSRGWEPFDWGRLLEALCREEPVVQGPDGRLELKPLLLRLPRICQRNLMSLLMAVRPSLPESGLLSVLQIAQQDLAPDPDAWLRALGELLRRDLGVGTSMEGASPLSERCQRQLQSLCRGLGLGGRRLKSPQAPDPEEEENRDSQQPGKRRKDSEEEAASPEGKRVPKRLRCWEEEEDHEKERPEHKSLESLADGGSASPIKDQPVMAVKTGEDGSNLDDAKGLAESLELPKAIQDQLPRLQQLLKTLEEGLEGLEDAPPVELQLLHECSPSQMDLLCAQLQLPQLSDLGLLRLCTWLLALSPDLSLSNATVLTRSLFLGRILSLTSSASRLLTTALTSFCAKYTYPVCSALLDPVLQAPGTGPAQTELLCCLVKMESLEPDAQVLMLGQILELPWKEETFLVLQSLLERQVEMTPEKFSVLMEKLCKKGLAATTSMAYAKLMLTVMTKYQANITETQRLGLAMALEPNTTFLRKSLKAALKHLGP
B3: Speckle-type POZ protein (Homo sapiens), O43791 (parent)
chain: B1 chain
partner: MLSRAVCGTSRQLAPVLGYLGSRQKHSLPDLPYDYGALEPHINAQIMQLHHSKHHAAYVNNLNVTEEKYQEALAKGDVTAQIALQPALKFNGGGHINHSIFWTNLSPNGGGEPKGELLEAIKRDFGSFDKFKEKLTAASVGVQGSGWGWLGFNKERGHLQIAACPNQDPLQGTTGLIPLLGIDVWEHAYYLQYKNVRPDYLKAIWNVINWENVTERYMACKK
B4: Speckle-type POZ protein (Homo sapiens), O43791 (parent)
chain: B1 chain
partner: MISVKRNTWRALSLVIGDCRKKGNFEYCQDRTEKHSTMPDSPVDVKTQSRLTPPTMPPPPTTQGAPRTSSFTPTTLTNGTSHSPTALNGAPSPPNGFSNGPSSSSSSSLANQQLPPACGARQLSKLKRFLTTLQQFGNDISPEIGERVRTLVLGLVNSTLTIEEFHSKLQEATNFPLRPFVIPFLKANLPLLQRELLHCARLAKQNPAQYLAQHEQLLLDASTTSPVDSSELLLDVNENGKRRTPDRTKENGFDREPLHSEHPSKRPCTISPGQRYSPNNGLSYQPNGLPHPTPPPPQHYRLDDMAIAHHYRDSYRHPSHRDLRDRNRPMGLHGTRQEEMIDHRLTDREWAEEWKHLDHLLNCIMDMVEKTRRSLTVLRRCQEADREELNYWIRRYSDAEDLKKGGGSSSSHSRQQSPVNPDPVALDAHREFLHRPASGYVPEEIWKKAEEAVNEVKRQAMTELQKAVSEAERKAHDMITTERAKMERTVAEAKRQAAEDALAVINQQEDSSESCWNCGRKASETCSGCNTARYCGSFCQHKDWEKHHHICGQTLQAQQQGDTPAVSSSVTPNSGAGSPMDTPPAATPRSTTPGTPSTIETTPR
B5: Speckle-type POZ protein (Homo sapiens), O43791 (parent)
chain: B1 chain
partner: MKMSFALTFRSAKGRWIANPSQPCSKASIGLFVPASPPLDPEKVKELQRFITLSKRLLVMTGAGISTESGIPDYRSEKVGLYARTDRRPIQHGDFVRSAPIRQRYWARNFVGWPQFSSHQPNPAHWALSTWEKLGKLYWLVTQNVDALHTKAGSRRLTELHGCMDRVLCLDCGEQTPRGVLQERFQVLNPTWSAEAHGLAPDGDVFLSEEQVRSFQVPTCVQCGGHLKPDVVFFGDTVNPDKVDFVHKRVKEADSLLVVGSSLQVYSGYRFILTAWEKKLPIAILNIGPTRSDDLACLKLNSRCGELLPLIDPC

Variants of: B1
Settings: with stk11_human STK11, Q15831

Variant | effect of a mutation on the interaction
Y87C | with no effect

Variants of: B1
Settings: with stk11_human STK11, Q15831
Remark: another data set of the same source

Variant | effect of a mutation on the interaction
F133L | with no effect

Variants of: B1
Settings: with stk11_human STK11, Q15831
Remark: another data set of the same source

Variant | effect of a mutation on the interaction
F133V | with no effect

Variants of: B1
Settings: with stk11_human STK11, Q15831
Remark: another data set of the same source

Variant | effect of a mutation on the interaction
F102C | with no effect

Variants of: B2
Settings: with fance_human FANCE

Variant | effect of a mutation on the interaction
Y87C | with no effect

Variants of: B3
Settings: with sodm_human SOD2, P04179

Variant | effect of a mutation on the interaction
F133L | with no effect

Variants of: B3
Settings: with sodm_human SOD2, P04179
Remark: another data set of the same source

Variant | effect of a mutation on the interaction
F133V | with no effect

Variants of: B3
Settings: with sodm_human SOD2, P04179
Remark: another data set of the same source

Variant | effect of a mutation on the interaction
F102C | with no effect

Variants of: B3
Settings: with sodm_human SOD2, P04179
Remark: another data set of the same source

Variant | effect of a mutation on the interaction
Y87C | with no effect

Variants of: B4
Settings: with mtg8_human RUNX1T1, Q06455

Variant | effect of a mutation on the interaction
Y87C | with no effect

Variants of: B4
Settings: with mtg8_human RUNX1T1, Q06455
Remark: another data set of the same source

Variant | effect of a mutation on the interaction
Y87C | disrupting interaction strength
F133L | disrupting interaction strength
F133V | disrupting interaction strength
F102C | disrupting interaction strength

Variants of: B4
Settings: with mtg8_human RUNX1T1, Q06455
Remark: another data set of the same source

Variant | effect of a mutation on the interaction
F133L | with no effect

Variants of: B4
Settings: with mtg8_human RUNX1T1, Q06455
Remark: another data set of the same source

Variant | effect of a mutation on the interaction
F133V | with no effect

Variants of: B4
Settings: with mtg8_human RUNX1T1, Q06455
Remark: another data set of the same source

Variant | effect of a mutation on the interaction
F102C | with no effect

Variants of: B5
Settings: with sir4_human SIRT4, Q9Y6E7

Variant | effect of a mutation on the interaction
F102C | with no effect
